# Laboratory results taken from patent US20260242478A1 (published 2026).
# Where no end group is shown, it is not given here.
# B1: Phage-845 (peptide)
# peptide: YCDGHIGEYMVKCL
# notes: Peptide-87 library clone, tested as clonal phage supernatant
# B2: Phage-847 (peptide)
# peptide: YCDGHVQEYMQKCL
# notes: as for B1
# B3: Phage-846 (peptide)
# peptide: YCEGHLAQYMNKCL
# notes: as for B1
# B4: Phage-840 (peptide)
# peptide: YCDGHSPQYMQKCL
# modifications: cysteine pairing not given here; also: displayed on phage by fusion to pIII, pIII and linker sequence not given here
# notes: as for B1
# B5: Phage-842 (peptide)
# peptide: YCDGHSQEYMLKCL
# modifications: cysteine pairing not given here; also: displayed on phage by fusion to pIII, pIII and linker sequence not given here
# notes: as for B1
# B6: Phage-844 (peptide)
# peptide: YCDGHKPQYMEKCL
# notes: as for B1
# B7: Phage-843 (peptide)
# peptide: YCDGHVEPYLSKCL
# modifications: cysteine pairing not given here; also: displayed on phage by fusion to pIII, pIII and linker sequence not given here
# notes: as for B1
# B8: Phage-841 (peptide)
# peptide: YCDGHIPEYLAKCL
# modifications: cysteine pairing not given here; also: displayed on phage by fusion to pIII, pIII and linker sequence not given here
# notes: as for B1
# B9: Phage-811 (peptide)
# peptide: YCDGHSSMYMAKCL
# modifications: cysteine pairing not given here; also: displayed on phage by fusion to pIII, pIII and linker sequence not given here
# notes: Clonal phage of the Peptide-87 library; not shown: fused to the pIII filament protein of the bacteriophage
# B10: Phage-813 (peptide)
# peptide: YCEGHSAEFMTKCL
# modifications: cysteine pairing not given here; also: displayed on phage by fusion to pIII, pIII and linker sequence not given here
# notes: as for B9
# B11: Phage-812 (peptide)
# peptide: YCAGHSSEYIWKCL
# modifications: cysteine pairing not given here; also: displayed on phage by fusion to pIII, pIII and linker sequence not given here
# notes: as for B9
# B12: Phage-810 (peptide)
# peptide: YCDGHTEEYMDKCL
# modifications: cysteine pairing not given here; also: displayed on phage by fusion to pIII, pIII and linker sequence not given here
# notes: as for B9
# Molecular target: T1, Anti-CD28 Fab (SEQ ID NOs: 696, 697)
# T1 construct: Biotinylated and captured on neutravidin coated plates in the phage ELISA
# Assay: phage binding ELISA; clonal phage supernatant on biotinylated anti-CD28 Fab captured on neutravidin plate; anti-M13 HRP detection
# T1 sequence (VH, as listed by the source, chain 1 of 2): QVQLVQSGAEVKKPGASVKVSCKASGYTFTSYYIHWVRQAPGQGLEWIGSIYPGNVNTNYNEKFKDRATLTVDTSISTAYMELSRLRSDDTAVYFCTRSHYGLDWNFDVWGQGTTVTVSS
# T1 sequence (VL, as listed by the source, chain 2 of 2): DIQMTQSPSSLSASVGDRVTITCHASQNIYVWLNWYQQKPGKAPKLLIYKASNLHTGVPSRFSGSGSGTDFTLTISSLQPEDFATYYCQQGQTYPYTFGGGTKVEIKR
# Procedure: (§1) After panning, phage infected bacteria were plated out and colonies picked into 96 well blocks. Clonal phage was then amplified and separated from bacterial cells via centrifugation.
# (§2) Clonal phage were harvested as crude supematants and screened via standard ELISAs. […] Prior to the addition of clonal phage, wells were incubated with blocking buffer and CD28 antigen or blocking buffer alone. Without washing or aspirating, clonal phage supematants were then added to the wells and incubated for a short time. Wells were then washed followed by detection of bound phage using a horse radish conjugated anti-M13 antibody. Clonal phage of interest were then sent for sequence analysis.
row,Binder,"Phage binding ELISA, Anti-CD28 Fab signal"
1,"YCEGHLPAYMQKCL [Phage-827 (Peptide-87 library sequence, SEQ ID NO: 1143)]",1.78
2,"YCEGHLDEYMWKCL [Phage-831 (Peptide-87 library sequence, SEQ ID NO: 1147)]",1.77
3,"YCVGHLQEYMEKCL [Phage-839 (Peptide-87 library sequence, SEQ ID NO: 1155)]",1.76
4,"YCAGHLPEYMLKCL [Phage-837 (Peptide-87 library sequence, SEQ ID NO: 1153)]",1.76
5,"YCEGHLPIYMSKCL [Phage-838 (Peptide-87 library sequence, SEQ ID NO: 1154)]",1.76
6,"YCAGHVPEYMAKCL [Phage-829 (Peptide-87 library sequence, SEQ ID NO: 1145)]",1.78
7,"YCDGHSAEYITKCL [Phage-830 (Peptide-87 library sequence, SEQ ID NO: 1146)]",1.77
8,"YCDGHLDEYMEKCL [Phage-836 (Peptide-87 library sequence, SEQ ID NO: 1152)]",1.76
9,"YCEGHSPQYVQKCL [Phage-834 (Peptide-87 library sequence, SEQ ID NO: 1150)]",1.77
10,"YCDGLASEYMSKCL [Phage-832 (Peptide-87 library sequence, SEQ ID NO: 1148)]",1.77
11,"YCDGHSSEYIAKCL [Phage-833 (Peptide-87 library sequence, SEQ ID NO: 1149)]",1.77
12,"YCEGHSPEYMRKCL [Phage-835 (Peptide-87 library sequence, SEQ ID NO: 1151)]",1.77
13,"YCEGHHPQYMAKCL [Phage-828 (Peptide-87 library sequence, SEQ ID NO: 1144)]",1.78

# Molecular target: Anti-CD28 Fab (SEQ ID NOs: 696, 697)
# Assay: phage ELISA; clonal phage on biotinylated anti-CD28 Fab captured on neutravidin, anti-M13 HRP detection
# Target sequence in this assay (VH, as listed by the source, chain 1 of 2): as the sequence (VH, as listed by the source, chain 1 of 2) above
# Target sequence in this assay (VL, as listed by the source, chain 2 of 2): as the sequence (VL, as listed by the source, chain 2 of 2) above
# Procedure: as §1, §2
row,Binder,"Phage binding ELISA, Anti-CD28 Fab signal"
1,"YCQGHSAEYMMKCL [Phage-814 (Peptide-87 library peptide, SEQ ID NO: 1130)]",1.81
2,"YCAGHLPQYMNKCL [Phage-815 (Peptide-87 library peptide, SEQ ID NO: 1131)]",1.81
3,"YCDGHSPEYIAKCL [Phage-824 (Peptide-87 library peptide, SEQ ID NO: 1140)]",1.79
4,"YCAGHLPMYMAKCL [Phage-817 (Peptide-87 library peptide, SEQ ID NO: 1133)]",1.8
5,"YCDGHLSEYMFKCL [Phage-821 (Peptide-87 library peptide, SEQ ID NO: 1137)]",1.79
6,"YCDGHKAEYMEKCL [Phage-816 (Peptide-87 library peptide, SEQ ID NO: 1132)]",1.81
7,"YCAGHAEQYMAKCL [Phage-820 (Peptide-87 library peptide, SEQ ID NO: 1136)]",1.8
8,"YCVGHAPEFMAKCL [Phage-819 (Peptide-87 library peptide, SEQ ID NO: 1135)]",1.8
9,"YCDGHTSEYITKCL [Phage-823 (Peptide-87 library peptide, SEQ ID NO: 1139)]",1.79
10,"YCDGHAPMYMAKCL [Phage-826 (Peptide-87 library peptide, SEQ ID NO: 1142)]",1.79
11,"YCDGHLAEYMVKCL [Phage-825 (Peptide-87 library peptide, SEQ ID NO: 1141)]",1.79
12,"YCDGHLGVYMAKCL [Phage-822 (Peptide-87 library peptide, SEQ ID NO: 1138)]",1.79
13,"YCDGHTREYIDKCL [Phage-818 (Peptide-87 library peptide, SEQ ID NO: 1134)]",1.8

# Molecular target: T2, Anti-CD28 Fab (SEQ ID NOs: 696, 697)
# T2 construct: In the phage ELISA the Fab was biotinylated and captured on neutravidin coated plates
# Assay: phage binding ELISA, clonal phage on biotinylated anti-CD28 Fab captured on neutravidin plates, anti-M13 HRP detection
# T2 sequence (VH, as listed by the source, chain 1 of 2): as the sequence (VH, as listed by the source, chain 1 of 2) above
# T2 sequence (VL, as listed by the source, chain 2 of 2): as the sequence (VL, as listed by the source, chain 2 of 2) above
# Procedure: as §1, §2
row,Binder,"Anti-CD28 Fab (SEQ ID NOs: 696, 697) signal"
1,B1,1.76
2,B2,1.76
3,B3,1.76
4,B4,1.76
5,B5,1.76
6,B6,1.76
7,B7,1.76
8,B8,1.76

# Molecular target: Anti-CD28 Fab (SEQ ID NOs: 696, 697)
# Assay: phage ELISA on captured anti-CD28 Fab; competitor CD28 antigen pre-incubated in the wells;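 note: clonal phage supernatants added to wells preloaded with CD28 antigen in blocking buffer, control wells buffer only, bound phage read via HRP-linked anti-M13 antibody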
# Target sequence in this assay (VH, as listed by the source, chain 1 of 2): as the sequence (VH, as listed by the source, chain 1 of 2) above
# Target sequence in this assay (VL, as listed by the source, chain 2 of 2): as the sequence (VL, as listed by the source, chain 2 of 2) above
# Procedure: as §1, §2
row,Binder,"Phage binding ELISA, Anti-CD28 Fab signal in the presence of CD28"
1,"YCQGHSAEYMMKCL [Phage-814 (Peptide-87 library peptide, SEQ ID NO: 1130)]",0.07
2,"YCAGHLPQYMNKCL [Phage-815 (Peptide-87 library peptide, SEQ ID NO: 1131)]",0.06
3,"YCDGHSPEYIAKCL [Phage-824 (Peptide-87 library peptide, SEQ ID NO: 1140)]",0.23
4,"YCAGHLPMYMAKCL [Phage-817 (Peptide-87 library peptide, SEQ ID NO: 1133)]",0.08
5,"YCDGHLSEYMFKCL [Phage-821 (Peptide-87 library peptide, SEQ ID NO: 1137)]",0.1
6,"YCDGHKAEYMEKCL [Phage-816 (Peptide-87 library peptide, SEQ ID NO: 1132)]",0.09
7,"YCAGHAEQYMAKCL [Phage-820 (Peptide-87 library peptide, SEQ ID NO: 1136)]",0.08
8,"YCVGHAPEFMAKCL [Phage-819 (Peptide-87 library peptide, SEQ ID NO: 1135)]",0.1
9,"YCDGHTSEYITKCL [Phage-823 (Peptide-87 library peptide, SEQ ID NO: 1139)]",0.07
10,"YCDGHAPMYMAKCL [Phage-826 (Peptide-87 library peptide, SEQ ID NO: 1142)]",0.08
11,"YCDGHLAEYMVKCL [Phage-825 (Peptide-87 library peptide, SEQ ID NO: 1141)]",0.08
12,"YCDGHLGVYMAKCL [Phage-822 (Peptide-87 library peptide, SEQ ID NO: 1138)]",0.07
13,"YCDGHTREYIDKCL [Phage-818 (Peptide-87 library peptide, SEQ ID NO: 1134)]",0.08

# Molecular target: T3, Anti-CD28 Fab (SEQ ID NOs: 696, 697)
# T3 construct: Biotinylated and captured on neutravidin coated plates in the phage ELISA
# Assay: phage binding ELISA; Fab on plate pre-incubated with CD28 antigen as competitor, anti-M13 HRP detection;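 note: crude clonal phage supernatants screened by ELISA, with comparison wells pre-incubated in blocking buffer only, lacking CD28 antigen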
# T3 sequence (VH, as listed by the source, chain 1 of 2): as the sequence (VH, as listed by the source, chain 1 of 2) above
# T3 sequence (VL, as listed by the source, chain 2 of 2): as the sequence (VL, as listed by the source, chain 2 of 2) above
# Procedure: as §1, §2
row,Binder,Anti-CD28 Fab signal in the presence of CD28
1,B9,0.06
2,B10,0.06
3,B11,0.06
4,B12,0.09

# Molecular target: T2, Anti-CD28 Fab (SEQ ID NOs: 696, 697)
# Assay: phage binding ELISA on captured anti-CD28 Fab, wells pre-incubated with CD28 antigen as competitor;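 note: crude clonal phage supernatants added to wells preloaded with CD28 antigen, bound phage read by HRP-conjugated anti-M13 antibody, control wells got blocking buffer alone without CD28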
# Procedure: as §1, §2
row,Binder,Anti-CD28 Fab signal in the presence of CD28
1,B1,0.66
2,B2,0.07
3,B3,0.07
4,B4,0.07
5,B5,0.05
6,B6,0.08
7,B7,0.1
8,B8,0.06

# Molecular target: T1, Anti-CD28 Fab (SEQ ID NOs: 696, 697)
# Assay: phage binding ELISA on captured anti-CD28 Fab, wells pre-incubated with CD28 antigen as competitor; anti-M13 HRP detection;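 for Anti-CD28 Fab signal in the presence of CD28: crude clonal phage supernatants added to wells preloaded with CD28 antigen, bound phage read by HRP-conjugated anti-M13 antibody, control wells got blocking buffer alone without CD28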
# Procedure: as §1, §2
row,Binder,"Phage binding ELISA, Anti-CD28 Fab signal in the presence of CD28"
1,"YCEGHLPAYMQKCL [Phage-827 (Peptide-87 library sequence, SEQ ID NO: 1143)]",0.07
2,"YCEGHLDEYMWKCL [Phage-831 (Peptide-87 library sequence, SEQ ID NO: 1147)]",0.06
3,"YCVGHLQEYMEKCL [Phage-839 (Peptide-87 library sequence, SEQ ID NO: 1155)]",0.06
4,"YCAGHLPEYMLKCL [Phage-837 (Peptide-87 library sequence, SEQ ID NO: 1153)]",0.09
5,"YCEGHLPIYMSKCL [Phage-838 (Peptide-87 library sequence, SEQ ID NO: 1154)]",0.09
6,"YCAGHVPEYMAKCL [Phage-829 (Peptide-87 library sequence, SEQ ID NO: 1145)]",0.07
7,"YCDGHSAEYITKCL [Phage-830 (Peptide-87 library sequence, SEQ ID NO: 1146)]",0.06
8,"YCDGHLDEYMEKCL [Phage-836 (Peptide-87 library sequence, SEQ ID NO: 1152)]",0.08
9,"YCEGHSPQYVQKCL [Phage-834 (Peptide-87 library sequence, SEQ ID NO: 1150)]",0.06
10,"YCDGLASEYMSKCL [Phage-832 (Peptide-87 library sequence, SEQ ID NO: 1148)]",0.05
11,"YCDGHSSEYIAKCL [Phage-833 (Peptide-87 library sequence, SEQ ID NO: 1149)]",0.07
12,"YCEGHSPEYMRKCL [Phage-835 (Peptide-87 library sequence, SEQ ID NO: 1151)]",0.08
13,"YCEGHHPQYMAKCL [Phage-828 (Peptide-87 library sequence, SEQ ID NO: 1144)]",0.09

# Molecular target: T3, Anti-CD28 Fab (SEQ ID NOs: 696, 697)
# Assay: phage binding ELISA; biotinylated Fab on neutravidin plate, clonal phage supernatant, anti-M13 HRP detection;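 note: phage from clones picked after panning, added to wells pre-incubated with blocking buffer with or without CD28 antigen, then briefly incubated and washed before detection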
row,Binder,"Anti-CD28 Fab (SEQ ID NOs: 696, 697) signal"
1,B9,1.82
2,B10,1.81
3,B11,1.82
4,B12,1.82
